Changes are numbered by the printed parent chain.
T1: human NTB-A (human, UniProt Q96DU3 22-332)
T1 construct: Endogenous NTB-A on antigen-positive Ramos cells (also on MM.1R, WIL2-S and Raji cells and normal human T and B lymphocytes); also called SLAMF6; human NTB-A isoform-1
T1 sequence: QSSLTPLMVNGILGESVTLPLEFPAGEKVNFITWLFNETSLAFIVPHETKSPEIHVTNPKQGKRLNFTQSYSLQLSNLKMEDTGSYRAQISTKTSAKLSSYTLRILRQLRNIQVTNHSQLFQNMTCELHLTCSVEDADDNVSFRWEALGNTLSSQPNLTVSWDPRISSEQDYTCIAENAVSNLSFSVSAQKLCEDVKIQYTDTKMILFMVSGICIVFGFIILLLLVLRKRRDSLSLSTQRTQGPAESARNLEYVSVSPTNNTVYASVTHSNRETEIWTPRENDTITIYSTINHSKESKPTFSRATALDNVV

B1: chimeric 20F3 (antibody, V domains shown)
VH: QIQLVQSGPELKKPGETVKISCKASGYTFTNYGMNWVKQAPGKDLKWMGWINTYSGEPRYADDFKGRFAFSLEKSANTAYLQINNLKNEDMATYFCARDYGRWYFDVWGTGTTVTVSS
VL: QIVLSQSPAILSASPGEKVTMTCRASSSVSHMHWYQQKPGSSPKPWIYATSNLASGVPARFSGSGSGTSYSLTISRVEAEDAATYYCQQWSSTPRTFGGGTKLEIKR
notes: It was detected with goat anti-human IgG, so the constant regions are human, but they are not specified
B2: c20F3-1910(2) ADC (other)
VH: B1 VH
VL: B1 VL
modifications: PBD dimer drug-linker 1910, load 2 by its name; attachment site not stated for the chimeric antibody
B3: c20F3-vcMMAE(4) ADC (other)
VH: B1 VH
VL: B1 VL
modifications: MMAE via a cathepsin-cleavable valine-citrulline linker, load 4 by its name; attachment sites not stated
B4: humanized 20F3 HDLD antibody (antibody, V domains shown)
VH: QIQLVQSGSELKKPGASVKVSCKASGYTFTNYGMNWVRQAPGQDLKWMGWINTYSGEPRYADDFKGRFVFSLDKSVNTAYLQISSLKAEDTAVYYCARDYGRWYFDVWGQGTTVTVSS
VL: QIVLSQSPATLSLSPGERATMSCRASSSVSHMHWYQQKPGQAPRPWIYATSNLASGVPARFSGSGSGTDYTLTISSLEPEDFAVYYCQQWSSTPRTFGGGTKVEIKR
notes: also called h20F3_HDLD; h20F3_HDLD-AF647
B5: humanized 20F3 HCLB (antibody, V domains shown)
VH: B4 VH with K46E
VL: B4 VL with Q1E, S5T, M21L, V57I
notes: Humanized heavy chain HC paired with humanized light chain LB
B6: humanized 20F3 HCLD (antibody, V domains shown)
VH: B4 VH with K46E
VL: B4 VL
notes: Humanized heavy chain HC paired with humanized light chain LD
B7: humanized 20F3 HALC (antibody, V domains shown)
VH: B4 VH with I2V, D44G, K46E, K74T, N77S
VL: B4 VL with M21L, V57I
notes: Humanized heavy chain HA paired with humanized light chain LC
B8: humanized 20F3 HDLB (antibody, V domains shown)
VH: B4 VH
VL: B4 VL with Q1E, S5T, M21L, V57I
notes: Humanized heavy chain HD paired with humanized light chain LB
B9: humanized 20F3 HBLD (antibody, V domains shown)
VH: B4 VH with D44G, K46E, N77S
VL: B4 VL
notes: Humanized heavy chain HB paired with humanized light chain LD
B10: humanized 20F3 HALB (antibody, V domains shown)
VH: B4 VH with I2V, D44G, K46E, K74T, N77S
VL: B4 VL with Q1E, S5T, M21L, V57I
notes: Humanized heavy chain HA paired with humanized light chain LB
B11: humanized 20F3 HELA (antibody, V domains shown)
VH: B4 VH with R38K, V69A, Y95F
VL: B4 VL with Q1E, S5T, M21L, P45L, W46L, V57I, Y70F
notes: Humanized heavy chain HE paired with humanized light chain LA
B12: humanized 20F3 HCLA (antibody, V domains shown)
VH: B4 VH with K46E
VL: B4 VL with Q1E, S5T, M21L, P45L, W46L, V57I, Y70F
notes: Humanized heavy chain HC paired with humanized light chain LA
B13: humanized 20F3 HALA (antibody, V domains shown)
VH: B4 VH with I2V, D44G, K46E, K74T, N77S
VL: B4 VL with Q1E, S5T, M21L, P45L, W46L, V57I, Y70F
notes: Humanized heavy chain HA paired with humanized light chain LA
B14: humanized 20F3 HDLC (antibody, V domains shown)
VH: B4 VH
VL: B4 VL with M21L, V57I
notes: Humanized heavy chain HD paired with humanized light chain LC
B15: humanized 20F3 HELB (antibody, V domains shown)
VH: B4 VH with R38K, V69A, Y95F
VL: B4 VL with Q1E, S5T, M21L, V57I
notes: Humanized heavy chain HE paired with humanized light chain LB
B16: humanized 20F3 HCLC (antibody, V domains shown)
VH: B4 VH with K46E
VL: B4 VL with M21L, V57I
notes: Humanized heavy chain HC paired with humanized light chain LC
B17: humanized 20F3 HDLA (antibody, V domains shown)
VH: B4 VH
VL: B4 VL with Q1E, S5T, M21L, P45L, W46L, V57I, Y70F
notes: Humanized heavy chain HD paired with humanized light chain LA
B18: humanized 20F3 HALD (antibody, V domains shown)
VH: B4 VH with I2V, D44G, K46E, K74T, N77S
VL: B4 VL
notes: Humanized heavy chain HA paired with humanized light chain LD
B19: humanized 20F3 HBLA (antibody, V domains shown)
VH: B4 VH with D44G, K46E, N77S
VL: B4 VL with Q1E, S5T, M21L, P45L, W46L, V57I, Y70F
notes: Humanized heavy chain HB paired with humanized light chain LA
B20: humanized 20F3 HELC (antibody, V domains shown)
VH: B4 VH with R38K, V69A, Y95F
VL: B4 VL with M21L, V57I
notes: Humanized heavy chain HE paired with humanized light chain LC
B21: humanized 20F3 HBLB (antibody, V domains shown)
VH: B4 VH with D44G, K46E, N77S
VL: B4 VL with Q1E, S5T, M21L, V57I
notes: Humanized heavy chain HB paired with humanized light chain LB
B22: humanized 20F3 HELD (antibody, V domains shown)
VH: B4 VH with R38K, V69A, Y95F
VL: B4 VL
notes: Humanized heavy chain HE paired with humanized light chain LD
B23: humanized 20F3 HBLC (antibody, V domains shown)
VH: B4 VH with D44G, K46E, N77S
VL: B4 VL with M21L, V57I
notes: Humanized heavy chain HB paired with humanized light chain LC
B24: murine 20F3 antibody (antibody, mouse IgG1, V domains shown)
VH: B1 VH
VL: B1 VL
notes: also called mouse 20F3
B25: h20F3ec (antibody, human IgG1, kappa, V domains shown)
VH: B4 VH
VL: B4 VL

The binders below were run against T1, human NTB-A (assay: saturation binding of Alexa Fluor 647-labeled antibody on Ramos cells, flow cytometry).
Protocol: (§1) Antigen positive Ramos cells were plated at 1×10⁵ cells per well in a 96 well V-bottom plate (Thermo Scientific, Rochester, N.Y.). Three-fold serial dilutions of 2× concentrated antibodies were prepared in FACs buffer (PBS+2% fetal bovine serum) and were added to the cells in duplicate. The antibody solutions were incubated with cells for 1 hour on ice, protected from light. The cells were washed twice with FACs buffer and analyzed on the LSRII flow cytometer (BD BioSciences, San Jose, Calif.). KD values were determined with GraphPad Prism software (La Jolla, Calif.). Anti-human NTB-A antibodies h20F3_HDLD and chimeric 20F3 were tested for binding to 293-F17 cells overexpressing cynomolgus-NTB-A. 293-F17/cynomolgus-NTB-A cells were plated at 5×10⁵ cells/well in FACS buffer (PBS+2% fetal bovine serum+0.02% azide) and incubated with 20 μg/mL antibody for 30 minutes on ice. The cells were washed twice and stained with 30 μg/mL goat anti-human IgG-PE (Jackson ImmunoResearch, West Grove, Pa.) for 30 minutes, on ice and protected from light. Cells were again washed twice with FACs buffer. Stained cells were analyzed on the FACs Calibur flow cytometer (BD BioSciences, San Jose, Calif.).

| Binder | Kd [nM] |
| --- | --- |
| B1 | 1.68 |

The binders below were run against T1, human NTB-A (assay: cell-based or functional assay).

| Binder | IC50, 96 hour cytotoxicity (Cell-Titer Glo), resting human B cells, donor 1 [µg/mL] | IC50, 96 hour cytotoxicity (Cell-Titer Glo), resting human B cells, donor 2 [µg/mL] | IC50, 96 hour cytotoxicity (Cell-Titer Glo), resting human B cells, donor 3 [µg/mL] | IC50, 96 hour cytotoxicity (Cell-Titer Glo), resting human T cells, donor 4 [µg/mL] | IC50, 96 hour cytotoxicity (Cell-Titer Glo), resting human T cells, donor 5 [µg/mL] | IC50, 96 hour cytotoxicity (Cell-Titer Glo), resting human T cells, donor 6 [µg/mL] |
| --- | --- | --- | --- | --- | --- | --- |
| B2 | 1.47 | 1.27 | 3.42 | > 10 | > 10 | > 10 |
| B3 | > 10 | > 10 | > 10 | – | – | – |

These binders were tested against T1, human NTB-A (assay: antigen binding competition assay on Ramos cells).
Protocol: (§2) Antigen positive Ramos cells were plated at 1×10⁵ cells per well in a 96 well V-bottom plate (Thermo Scientific, Rochester, N.Y.). Fifty-fold serial dilutions of antibodies were prepared in FACs buffer (PBS+2% fetal bovine serum) and were added to the cells in duplicate. The antibody solutions were incubated with cells for 1 hour on ice, protected from light. The cells were washed twice with FACs buffer and analyzed on the LSRII flow cytometer (BD BioSciences, San Jose, Calif.). EC50 values were determined with GraphPad Prism software (La Jolla, Calif.).

| Binder | EC50 [nM] |
| --- | --- |
| B4 | ~12 |

The binders below were run against T1, human NTB-A (assay: saturation binding of Alexa Fluor 647-labeled antibody (h20F3_HDLD-AF647) on Ramos cells, flow cytometry).
Protocol: as §1

| Binder | Kd [nM] |
| --- | --- |
| B4 | 2.2 |

What follows are binders tested against T1, human NTB-A (assay: competition flow cytometry on Ramos cells; competitor 5 nM mouse 20F3-Alexa Fluor 647).
Protocol: as §2

| Binder | EC50 [nM] |
| --- | --- |
| B5 | 5 |
| B6 | 5 |
| B4 | 3 |
| B7 | 27 |
| B8 | 3 |
| B9 | 4 |
| B10 | 12 |
| B11 | 31 |
| B12 | 25 |
| B13 | 147 |
| B14 | 6 |
| B15 | 4 |
| B16 | 8 |
| B17 | 15 |
| B18 | 12 |
| B19 | 71 |
| B20 | 10 |
| B21 | 6 |
| B22 | 2 |
| B23 | 12 |
| B24 | 2 |

Biological target: T1, human NTB-A
Assay: cell-based or functional assay
Remark: another data set of the same source

| Binder | Maximum % Phagocytosis (ADCP), Raji cell line [%] | Maximum % Phagocytosis (ADCP), WIL2-S cell line [%] | Maximum % Phagocytosis (ADCP), normal human T cells [%] |
| --- | --- | --- | --- |
| B25 | 44 | 45 | 33 |
| B4 | 48 | 45 | 42 |

— patent US20180169257A1 (Seagen, published 2018)
